The source of these data is patent publication US20190185537A1 (AstraZeneca / MedImmune, published 2019).

Numbered stars: 1 amine (or outer) side, 2 acyl side, 3 side chain; on linkers, the order of the positions; unused ones are H or OH. Side chains are listed from the residue outwards. Ends that are not written are not given here. * marks the point of attachment. γGlu = O=C(O)[C@H](CCC(=O)[*:2])N[*:1]; Palmitoyl = CCCCCCCCCCCCCCCC(=O)*

The chains are these.
B1: g850 (peptide)
peptide: HSQGTFTSDYSRYK([γGlu-Palmitoyl])DSRSARDFVAWLEA-NH2
modifications: N-terminus assumed
SMILES: CCCCCCCCCCCCCCCC(=O)N[C@@H](CCC(=O)NCCCC[C@H](NC(=O)[C@H](Cc1ccc(O)cc1)NC(=O)[C@H](CCCNC(=N)N)NC(=O)[C@H](CO)NC(=O)[C@H](Cc1ccc(O)cc1)NC(=O)[C@H](CC(=O)O)NC(=O)[C@H](CO)NC(=O)[C@@H](NC(=O)[C@H](Cc1ccccc1)NC(=O)[C@@H](NC(=O)CNC(=O)[C@H](CCC(N)=O)NC(=O)[C@H](CO)NC(=O)[C@@H](N)Cc1c[nH]cn1)[C@@H](C)O)[C@@H](C)O)C(=O)N[C@@H](CC(=O)O)C(=O)N[C@@H](CO)C(=O)N[C@@H](CCCNC(=N)N)C(=O)N[C@@H](CO)C(=O)N[C@@H](C)C(=O)N[C@@H](CCCNC(=N)N)C(=O)N[C@@H](CC(=O)O)C(=O)N[C@@H](Cc1ccccc1)C(=O)N[C@H](C(=O)N[C@@H](C)C(=O)N[C@@H](Cc1c[nH]c2ccccc12)C(=O)N[C@@H](CC(C)C)C(=O)N[C@@H](CCC(=O)O)C(=O)N[C@@H](C)C(N)=O)C(C)C)C(=O)O
B2: g601 (peptide)
peptide: HSQGTFTSDYSKYK([γGlu-Palmitoyl])DSRRAQDFVQWLEAGG-NH2
modifications: N-terminus assumed
SMILES: CCCCCCCCCCCCCCCC(=O)N[C@@H](CCC(=O)NCCCC[C@H](NC(=O)[C@H](Cc1ccc(O)cc1)NC(=O)[C@H](CCCCN)NC(=O)[C@H](CO)NC(=O)[C@H](Cc1ccc(O)cc1)NC(=O)[C@H](CC(=O)O)NC(=O)[C@H](CO)NC(=O)[C@@H](NC(=O)[C@H](Cc1ccccc1)NC(=O)[C@@H](NC(=O)CNC(=O)[C@H](CCC(N)=O)NC(=O)[C@H](CO)NC(=O)[C@@H](N)Cc1c[nH]cn1)[C@@H](C)O)[C@@H](C)O)C(=O)N[C@@H](CC(=O)O)C(=O)N[C@@H](CO)C(=O)N[C@@H](CCCNC(=N)N)C(=O)N[C@@H](CCCNC(=N)N)C(=O)N[C@@H](C)C(=O)N[C@@H](CCC(N)=O)C(=O)N[C@@H](CC(=O)O)C(=O)N[C@@H](Cc1ccccc1)C(=O)N[C@H](C(=O)N[C@@H](CCC(N)=O)C(=O)N[C@@H](Cc1c[nH]c2ccccc12)C(=O)N[C@@H](CC(C)C)C(=O)N[C@@H](CCC(=O)O)C(=O)N[C@@H](C)C(=O)NCC(=O)NCC(N)=O)C(C)C)C(=O)O
B3: g805 (peptide)
peptide: HSQGTFTSDYSKYK([γGlu-Palmitoyl])DSRRARDFVEWLEAGG-NH2
modifications: N-terminus assumed
SMILES: CCCCCCCCCCCCCCCC(=O)N[C@@H](CCC(=O)NCCCC[C@H](NC(=O)[C@H](Cc1ccc(O)cc1)NC(=O)[C@H](CCCCN)NC(=O)[C@H](CO)NC(=O)[C@H](Cc1ccc(O)cc1)NC(=O)[C@H](CC(=O)O)NC(=O)[C@H](CO)NC(=O)[C@@H](NC(=O)[C@H](Cc1ccccc1)NC(=O)[C@@H](NC(=O)CNC(=O)[C@H](CCC(N)=O)NC(=O)[C@H](CO)NC(=O)[C@@H](N)Cc1c[nH]cn1)[C@@H](C)O)[C@@H](C)O)C(=O)N[C@@H](CC(=O)O)C(=O)N[C@@H](CO)C(=O)N[C@@H](CCCNC(=N)N)C(=O)N[C@@H](CCCNC(=N)N)C(=O)N[C@@H](C)C(=O)N[C@@H](CCCNC(=N)N)C(=O)N[C@@H](CC(=O)O)C(=O)N[C@@H](Cc1ccccc1)C(=O)N[C@H](C(=O)N[C@@H](CCC(=O)O)C(=O)N[C@@H](Cc1c[nH]c2ccccc12)C(=O)N[C@@H](CC(C)C)C(=O)N[C@@H](CCC(=O)O)C(=O)N[C@@H](C)C(=O)NCC(=O)NCC(N)=O)C(C)C)C(=O)O
B4: g836 (peptide)
peptide: HSQGTFTSDYSKYK([γGlu-Palmitoyl])DSERARDFVEWLEAGG-NH2
modifications: N-terminus assumed
SMILES: CCCCCCCCCCCCCCCC(=O)N[C@@H](CCC(=O)NCCCC[C@H](NC(=O)[C@H](Cc1ccc(O)cc1)NC(=O)[C@H](CCCCN)NC(=O)[C@H](CO)NC(=O)[C@H](Cc1ccc(O)cc1)NC(=O)[C@H](CC(=O)O)NC(=O)[C@H](CO)NC(=O)[C@@H](NC(=O)[C@H](Cc1ccccc1)NC(=O)[C@@H](NC(=O)CNC(=O)[C@H](CCC(N)=O)NC(=O)[C@H](CO)NC(=O)[C@@H](N)Cc1c[nH]cn1)[C@@H](C)O)[C@@H](C)O)C(=O)N[C@@H](CC(=O)O)C(=O)N[C@@H](CO)C(=O)N[C@@H](CCC(=O)O)C(=O)N[C@@H](CCCNC(=N)N)C(=O)N[C@@H](C)C(=O)N[C@@H](CCCNC(=N)N)C(=O)N[C@@H](CC(=O)O)C(=O)N[C@@H](Cc1ccccc1)C(=O)N[C@H](C(=O)N[C@@H](CCC(=O)O)C(=O)N[C@@H](Cc1c[nH]c2ccccc12)C(=O)N[C@@H](CC(C)C)C(=O)N[C@@H](CCC(=O)O)C(=O)N[C@@H](C)C(=O)NCC(=O)NCC(N)=O)C(C)C)C(=O)O
B5: g817 (peptide)
peptide: HSQGTFTSDYSKYK([γGlu-Palmitoyl])DSRAAQDFVQWLEAGG-NH2
modifications: N-terminus assumed
SMILES: CCCCCCCCCCCCCCCC(=O)N[C@@H](CCC(=O)NCCCC[C@H](NC(=O)[C@H](Cc1ccc(O)cc1)NC(=O)[C@H](CCCCN)NC(=O)[C@H](CO)NC(=O)[C@H](Cc1ccc(O)cc1)NC(=O)[C@H](CC(=O)O)NC(=O)[C@H](CO)NC(=O)[C@@H](NC(=O)[C@H](Cc1ccccc1)NC(=O)[C@@H](NC(=O)CNC(=O)[C@H](CCC(N)=O)NC(=O)[C@H](CO)NC(=O)[C@@H](N)Cc1c[nH]cn1)[C@@H](C)O)[C@@H](C)O)C(=O)N[C@@H](CC(=O)O)C(=O)N[C@@H](CO)C(=O)N[C@@H](CCCNC(=N)N)C(=O)N[C@@H](C)C(=O)N[C@@H](C)C(=O)N[C@@H](CCC(N)=O)C(=O)N[C@@H](CC(=O)O)C(=O)N[C@@H](Cc1ccccc1)C(=O)N[C@H](C(=O)N[C@@H](CCC(N)=O)C(=O)N[C@@H](Cc1c[nH]c2ccccc12)C(=O)N[C@@H](CC(C)C)C(=O)N[C@@H](CCC(=O)O)C(=O)N[C@@H](C)C(=O)NCC(=O)NCC(N)=O)C(C)C)C(=O)O
B6: g876 (peptide)
peptide: HSQGTFTSDYSEYK([γGlu-Palmitoyl])DSRRARDFVEWLEAGG-NH2
modifications: N-terminus assumed
SMILES: CCCCCCCCCCCCCCCC(=O)N[C@@H](CCC(=O)NCCCC[C@H](NC(=O)[C@H](Cc1ccc(O)cc1)NC(=O)[C@H](CCC(=O)O)NC(=O)[C@H](CO)NC(=O)[C@H](Cc1ccc(O)cc1)NC(=O)[C@H](CC(=O)O)NC(=O)[C@H](CO)NC(=O)[C@@H](NC(=O)[C@H](Cc1ccccc1)NC(=O)[C@@H](NC(=O)CNC(=O)[C@H](CCC(N)=O)NC(=O)[C@H](CO)NC(=O)[C@@H](N)Cc1c[nH]cn1)[C@@H](C)O)[C@@H](C)O)C(=O)N[C@@H](CC(=O)O)C(=O)N[C@@H](CO)C(=O)N[C@@H](CCCNC(=N)N)C(=O)N[C@@H](CCCNC(=N)N)C(=O)N[C@@H](C)C(=O)N[C@@H](CCCNC(=N)N)C(=O)N[C@@H](CC(=O)O)C(=O)N[C@@H](Cc1ccccc1)C(=O)N[C@H](C(=O)N[C@@H](CCC(=O)O)C(=O)N[C@@H](Cc1c[nH]c2ccccc12)C(=O)N[C@@H](CC(C)C)C(=O)N[C@@H](CCC(=O)O)C(=O)N[C@@H](C)C(=O)NCC(=O)NCC(N)=O)C(C)C)C(=O)O
B7: g780 (peptide)
peptide: HSQGTFTSDYSKYK([γGlu-Palmitoyl])DSRRARDFVAWLEAGG-NH2
modifications: N-terminus assumed
SMILES: CCCCCCCCCCCCCCCC(=O)N[C@@H](CCC(=O)NCCCC[C@H](NC(=O)[C@H](Cc1ccc(O)cc1)NC(=O)[C@H](CCCCN)NC(=O)[C@H](CO)NC(=O)[C@H](Cc1ccc(O)cc1)NC(=O)[C@H](CC(=O)O)NC(=O)[C@H](CO)NC(=O)[C@@H](NC(=O)[C@H](Cc1ccccc1)NC(=O)[C@@H](NC(=O)CNC(=O)[C@H](CCC(N)=O)NC(=O)[C@H](CO)NC(=O)[C@@H](N)Cc1c[nH]cn1)[C@@H](C)O)[C@@H](C)O)C(=O)N[C@@H](CC(=O)O)C(=O)N[C@@H](CO)C(=O)N[C@@H](CCCNC(=N)N)C(=O)N[C@@H](CCCNC(=N)N)C(=O)N[C@@H](C)C(=O)N[C@@H](CCCNC(=N)N)C(=O)N[C@@H](CC(=O)O)C(=O)N[C@@H](Cc1ccccc1)C(=O)N[C@H](C(=O)N[C@@H](C)C(=O)N[C@@H](Cc1c[nH]c2ccccc12)C(=O)N[C@@H](CC(C)C)C(=O)N[C@@H](CCC(=O)O)C(=O)N[C@@H](C)C(=O)NCC(=O)NCC(N)=O)C(C)C)C(=O)O

Chain of human glucagon receptor (P47871 26-477): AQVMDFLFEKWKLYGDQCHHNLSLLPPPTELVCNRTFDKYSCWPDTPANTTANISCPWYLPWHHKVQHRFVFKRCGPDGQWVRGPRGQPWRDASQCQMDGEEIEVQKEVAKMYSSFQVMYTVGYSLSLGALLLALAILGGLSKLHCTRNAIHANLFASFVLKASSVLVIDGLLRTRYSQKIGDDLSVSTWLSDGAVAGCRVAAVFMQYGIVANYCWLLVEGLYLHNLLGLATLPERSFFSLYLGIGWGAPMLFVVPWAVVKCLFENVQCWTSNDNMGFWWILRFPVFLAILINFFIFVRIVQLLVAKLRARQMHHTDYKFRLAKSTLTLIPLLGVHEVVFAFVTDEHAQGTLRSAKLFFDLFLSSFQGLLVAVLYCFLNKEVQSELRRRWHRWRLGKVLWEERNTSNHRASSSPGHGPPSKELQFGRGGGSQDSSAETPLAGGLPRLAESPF

The first assay addresses T1, human glucose-dependent insulinotropic peptide (gastric inhibitory polypeptide) receptor (human) (UniProt P48546).
T1 sequence (looked up): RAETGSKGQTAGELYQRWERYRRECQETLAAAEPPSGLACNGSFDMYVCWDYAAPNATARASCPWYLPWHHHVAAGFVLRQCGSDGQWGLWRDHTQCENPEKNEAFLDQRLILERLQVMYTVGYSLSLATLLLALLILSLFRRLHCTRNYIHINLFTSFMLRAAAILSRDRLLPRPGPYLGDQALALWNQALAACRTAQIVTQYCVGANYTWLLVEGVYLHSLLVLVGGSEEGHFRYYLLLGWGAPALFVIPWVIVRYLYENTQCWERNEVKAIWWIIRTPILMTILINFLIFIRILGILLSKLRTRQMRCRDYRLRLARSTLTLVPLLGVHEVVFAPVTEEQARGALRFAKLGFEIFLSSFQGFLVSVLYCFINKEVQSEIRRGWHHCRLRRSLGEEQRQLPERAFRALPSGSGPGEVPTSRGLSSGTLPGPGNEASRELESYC
The assay can be described thus: cell-based or functional assay.
Molecule B1 came in with a cAMP EC50 (assay 1) of 89.6 nM.

Regarding B2, the cAMP EC50 (assay 1) worked out at 74.1 nM.

As to B3, the cAMP EC50 (assay 1) came out at 99.7 nM.

Consider B4, for which the cAMP EC50 (assay 1) came to 100 nM.

B5 displayed a cAMP EC50 (assay 1) of 15.2 nM.

In the case of B6, the cAMP EC50 (assay 1) worked out at 79 nM.

B7 showed a cAMP EC50 (assay 1) of 64 nM.

A further assay has as its target human glucagon receptor (human, UniProt P47871 26-477). Briefly: cell-based or functional assay.
B1 returned a cAMP EC50 (assay 1) of 0.00219 nM.

For B2, the cAMP EC50 (assay 1) is 0.000493 nM.

B3: the cAMP EC50 (assay 1) was determined as 0.00144 nM.

B4 showed a cAMP EC50 (assay 1) of 0.0155 nM.

For the molecule B5, the cAMP EC50 (assay 1) was 0.00168 nM.

Consider B6, for which the cAMP EC50 (assay 1) came to 0.0104 nM.

B7 registered a cAMP EC50 (assay 1) of 0.000792 nM.

The next assay deals with human GLP-1 receptor (human, UniProt P43220 24-463). The assay can be described thus: cell-based or functional assay.
Chain of human GLP-1 receptor (P43220 24-463): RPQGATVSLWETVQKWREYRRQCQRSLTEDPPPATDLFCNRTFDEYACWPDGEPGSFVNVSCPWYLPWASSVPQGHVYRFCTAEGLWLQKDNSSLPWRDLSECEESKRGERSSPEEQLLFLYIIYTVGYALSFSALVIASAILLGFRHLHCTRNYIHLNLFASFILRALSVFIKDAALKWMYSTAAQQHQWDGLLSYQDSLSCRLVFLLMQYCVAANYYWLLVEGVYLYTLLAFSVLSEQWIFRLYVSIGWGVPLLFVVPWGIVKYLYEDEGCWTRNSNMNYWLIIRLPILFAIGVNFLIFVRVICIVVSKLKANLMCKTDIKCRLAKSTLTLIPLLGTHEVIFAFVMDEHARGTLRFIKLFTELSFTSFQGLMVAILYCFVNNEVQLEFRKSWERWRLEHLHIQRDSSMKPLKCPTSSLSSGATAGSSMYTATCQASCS
With B1, the cAMP EC50 (assay 1) was 0.0212 nM.

B2 had a cAMP EC50 (assay 1) of 0.0398 nM.

Molecule B3 displayed a cAMP EC50 (assay 1) of 0.0228 nM.

For B4, the cAMP EC50 (assay 1) was determined as 0.124 nM.

Turning to B5, the cAMP EC50 (assay 1) came to 0.0251 nM.

As for B6, the cAMP EC50 (assay 1) was 0.0863 nM.

B7: the cAMP EC50 (assay 1) amounted to 0.012 nM.
